US20090281023A9

Key:
[1] = target: PEG7-Octyl-Salmon Calcitonin, Diconjugate (salmon) (UniProt P01263)
[2] = target: salmon calcitonin (salmon) (UniProt P01263)
[3] = target: PEG7-Octyl-Salmon Calcitonin, Diconjugate (salmon) (UniProt P01263); remark: listed apart in the source
[4] = target: salmon calcitonin (salmon) (UniProt P01263); remark: listed apart in the source

Which % Remaining Following 0.5 U/mL Chymotrypsin Digest (60 min, non-formulated) [1] does the source give for Chymotrypsin (enzyme) here?
The % Remaining Following 0.5 U/mL Chymotrypsin Digest (60 min, non-formulated) was 6 % remaining.

And the % Remaining Following 0.5 U/mL Chymotrypsin Digest (60 min, non-formulated) [2]?
Its % Remaining Following 0.5 U/mL Chymotrypsin Digest (60 min, non-formulated) is 5 % remaining.

Which % Remaining following 1 U/mL Trypsin Digest (180 min, non-formulated) [3] does the source give for Trypsin (enzyme) here?
The % Remaining following 1 U/mL Trypsin Digest (180 min, non-formulated) was 61 % remaining.

And the % Remaining following 1 U/mL Trypsin Digest (180 min, non-formulated) [4]?
The % Remaining following 1 U/mL Trypsin Digest (180 min, non-formulated) was 31 % remaining.
